# In the DeepSol protein solubility set:
# Assay: soluble on expression in E. coli; label from the status in PepcDB or PDB records
row,Sequence,soluble on expression in E. coli
1,MAHHHHHHMTSGPNNTTNIYDPIEVARANPYFKRNHMGQVTCTLCGIYCPEENNFLKHIAGKTHALQLERRQHKELRHLRLQEEERLNTEAEERARKEEALLALSGGQAGSGAAGGAGALSSAAAAAANARFGTPLYSFRTEHDEVAYRTKVWIEVMFTQAEEGTRPLHRWLSAREQHVEKPPDDYFVYLLFACEGYTTVALKFPAKANRSQPRDVLEEADGSTSEAYWCSWDPLQKVYTLFFALSR,soluble
2,MSLSMSLRDQLLKAGLVNEKQAKQATKQKQKQQRLEHKNQVDKDDSQRQAAEQAKAEKLARDQELNRQQQEKAEKKAKAAQIKQLIEGTRLPKLESDDYYNFVDAKKVKRIAVNDLIRDKLSRGSLAIVSYDGRYEIVPRDAAVKIQERDPRRVVLLNVQSQEPDEDDPYKDYVVPDDLMWEGGSHHHHHH,soluble
3,MKKVAVLLAPGFEEAEAIVTLDILRRLHIDVETLACAESRAVVSYHDIPMVADSTLSERQQALFDAVVLPGGPQGSANLAANPAVIAFVARHDAAGKLICPICSAAARVLGAHGLLKGRRYVCSGDLWKAVPEGVYVDAPVVEDGNLISGKGLGHVFDFALTLSARLLGDDAPVREQAEHIYYPW,not soluble
4,MSEKKSELVGRHKRVAYMNTDATGSSPKFERMTNFTTMTNGKNPKEYSRQYVDEIAERADVVGYAPAIEYSFDRYTNNPVHEKIATIHDGEKLGDDAHVEVVVVDFFKKSDKGDKCYATKRTYAVIPDSDGDGTDALVYSGSLKSVSDIEEGYVTETDFTSKTVTYAKGDYAATELEHHHHHH,soluble
5,MKKIEVDLVRTKVYNLLKEMILNHELKLGEKLNVRELSEKLGISFTPVRDALLQLATEGLVKVVPRVGFFVTDVDEKFIRETIETRIMMEVFCLENYFDKIAGSEELLEIKGEIDDVEKSAKREIFDDSDERLHKLFIRASGNELIISLYEKIWDRIDLVRHLNERYVVSNREHKELIERIISGDKEGAIEKLKEHLKNVEAETIKNLYTYERS,soluble
6,MGSDKIHHHHHHMFRVVICDDEKIQRSILKEFTEKLLSERCLNYQILEFSCGEDLISKYPEKIDIIFLDIQMKDINGIEVAKKIRKFDEKVEIIFTTAFSEYAPQGYEVRAYRYLVKPIEYSNFAMGVNLCIDNLQRKKERYIVLNSKKGFNRILIDSILYVETVKRDLVVHTIGRDYKANMSMKQAEKLLCENGFFRCHTSFIVNLRRIEDLRDNMITINEQFIPISKYRLKDLKVALTSLLCDIMY,not soluble
7,GSDHVDLREHVIDVPPQEVICKDNVVVTVDAVVYYQVIDPVKAVYNVSDFLMAIVKLAQTNLRAIIGEMELDETLSGRDIINARLREELDKITDRWGVKITRVEIQRIDPPKD,soluble
8,MKTINVFHYDAFTNKPNMGNPAGIVLDADGLTEEEMQRIAEKVGFNETSFVLSSEVADIRMRYFTPGYEMDLCGHGTVGTIYALRERGLLEEKASLTIETKAGILPIQIGVNENGETFIKMRQTAPQFKDFAGSKEELAHSIGLEVNDLDVSLPIVYGSTGNWTVIVPVKNLDVCERMKPNNEVFPSVLKEIPNASIHPICLETYDEKVHMHGRHFSSAYAGTIEDPVTGTASGVMGAYYATYVEKDFDHEMELIVEQGQEIHKDGRVTVYVTKDVESEKLQIDIAGTAVYVKEFEVLI,soluble
9,MAIQFIVSNKYTAEVSKQLNDSQNWVLDSGIYYEDHNNHIVSSPINSATKPQNTREEWLWIPPHCQVVVCSTSSLKSFLGCKASEDLDRVFGDHPLWLDQLRPLSNLLENSLIDLLSRAPFEQSSKRNIQSMERGNPVMNWNVMQVEEEDTRGEQRVAASSSLSSSFDWNTFLRDRCGLSEEDVAYCFRKLSRFGRVSLSRLNEDSLLRMGINDPTVIAKLLIGITEEFS,not soluble
10,MELTFNQAAKGVNKEFTVNIMDTCERCNGKGNEPGTKVQHCHYCGGSGMETINTGPFVMRSTCRRCGGRGSIIISPCVVCRGAGQAKQKKR,soluble
11,MMFGRFTQRAQKVLALSQEEAMRLNHSNLGTEHILLGLVREGEGIAAKALYELGISSEKVQQEVEGLIGHGEKAVTTIQYTPRAKKVIELSMDEARKLGHTYVGTEHILLGLIREGEGVAARVLSNLGISLNKARQQVLQLLGGGDATGAGRQTNTQATPTLDSLARDLTVIAREDNLDPVIGRSKEIQRVIEVLSRRTKNNPVLIGEPGVGKTAIAEGLAQQIVRNEVPETLRGKRVMTLDMGTVVAGTKYRGEFEDRLKKVMDEIRQAGNVILFIDELHTLIGAGGAEGAIDASNILKPPLARGELQCIGATTLDEYRKYIEKDAALERRFQPIKVDEPTVEESIQILHGLRDRYEAHHRVAITDEALEAAVRLSDRYISDRFLPDKAIDVIDESGSKVRLKSFTTPKNVKEMENNLSDLKKEKDAAVQGQEFEKAASLRDKEQKLKKSLEETKANWQEKQGLDHSEVTEDIVAEVVASWTGIPVAKLAETETNKLLNMEKLLHERVIGQDAAVKAVSLAVRRARAGLKDPKRPIGSFIFLGPTGVGKTELARALAESMFGDEDSMIRIDMSEYMEKFSTARLVGAPPGYVGYEEGGQLTEKVRQKPYSVVLLDEIEKAHPDVFNMLLQVLDDGRLTDSKGRVVDFRNTVIIMTSNIGAQEMKQDKSMGFNVTDPLKDHKAMEHRVLQDLKQAFRPEFINRIDETIVFHSLQEKELKQIVTLLTAQLTKRLAERDIHVKLTEGAKSKIAKDGYDPEYGARPLKRAIQKEVEDMLSEELLRGNIKVGDYVEIGVKDGKLEVRKKDAPKKKTTSKKVKAK,not soluble
12,MGSDKIHHHHHHMLYVTGITGHSGQWFVKRLISEGYKGRIRCIVLPESDTDFLNKSGLDIDIVSGNLNDQEFLTSTMVGCSTVLHIASIDFSRNVVKAALDNNLDWAILVHTTGRYSKYKSASAEYIEIEEYVLKFRNRMGITVLRPTMIYGSSRDRNMYKLITFLHKIKFFPMFGEGENLMQPVHARDLGNAYYDVIVNRSTTFNKGYNLPGKRPLTYMELVRTVSDTLGRKNVIIKIPLWFSILAARVYNALDKNAIISVEQVLRMQEDKAFDYEDAVRDFSYSPVSFEDGIVEEVNEYLARYNSSRTKQR,not soluble
13,ASWSHPQFEKGAMSNYSMSRGHSDKCVGAEDILSEIKEAEKVLNAASDELKREGHNVKTFIDRTSTTQSANLNKIVNWHNANPADVHISVHLNAGKGTGVEVWYYAGDEKGRKLAVEISAKMAKALGLPNRGAKATKDLRFLNSTKGTAVLLEVCFVDRKEDANAIHKSGMYDKLGIAIAEGLTGKTVAAKNPNRHSGAVVDSVPMLSKMDFKSSPIKMYKAGSSLLVYEHNKYWYKAYINDKLCYIYKSFCISNGKKDAKGRIKVRIKSAKDLRIPVWNNTKLNSGKIKWYSPGTKLSWYDNKKGYLELWYEKDGWYYTANYFLK,soluble
14,MSTPTAADRAKALERKNEGNVFVKEKHFLKAIEKYTEAIDLDSTQSIYFSNRAFAHFKVDNFQSALNDCDEAIKLDPKNIKAYHRRALSCMALLEFKKARKDLNVLLKAKPNDPAATKALLTCDRFIREERFRKAIGGAENEAKISLCQTLNLSSFDANADLANYEGPKLEFEQLYDDKNAFKGAKIKNMSQEFISKMVNDLFLKGKYLPKKYVAAIISHADTLFRQEPSMVELENNSTPDVKISVCGDTHGQFYDVLNLFRKFGKVGPKHTYLFNGDFVDRGSWSCEVALLFYCLKILHPNNFFLNRGNHESDNMNKIYGFEDECKYKYSQRIFNMFAQSFESLPLATLINNDYLVMHGGLPSDPSATLSDFKNIDRFAQPPRDGAFMELLWADPQEANGMGPSQRGLGHAFGPDITDRFLRNNKLRKIFRSHELRMGGVQFEQKGKLMTVFSAPNYCDSQGNLGGVIHVVPGHGILQAGRNDDQNLIIETFEAVEHPDIKPMAYSNGGFGL,soluble
15,MSYYHHHHHHLESTSLYKKALAYTLPQLPYAYDALEPHIDARTMEIHHTKHHQTYVDNANKALEGTEFADLPVEQLIQQLDRVPADKKGALRNNAGGHANHSMFWQIMGQGQGQNGANQPSGELLDAINSAFGSFDAFKQKFEDAAKTRFGSGWAWLVVKDGKLDVVSTANQDNPLMGEAIAGVSGTPILGVDVWEHAYYLNYQNRRPDYLAAFWNVVNWDEVSKRYAAAK,soluble
16,MGSDKIHHHHHHMDLNEIIEKLKDILSEEKEGQKVLDRDVALALHIHPQSFACMKSRQKIPYEEILAFCAKRKISANWLFYNQAPESLIDTTNQYCYIRYFSQVHASAGGGAFNDTEACERIKLDAFWVERLGGEKEIKQIEAIAVTGDSMEPTLEDGDLIFIHRQKRQISKGGIFVIQTPHGIFVKRLQERLDGGVDILSDNSLYPTQTLERDGIEVIGRVVGALKNLE,not soluble
17,LTSGNINIGNLKVGNDYPMRVLGEIVHVPWLSKEELEEKVNYYVESGADMIDLGMVSNEDYSKDLKQIIKTVRDITDKPVSVDTLNTKELIEAVNLDVDMILSVDSGNFDELLPYLKEKNTVSVVLPTNYKTNEVPKKISEKIQNMEKILEKFKENDLLAVADPILEPINNSGCNFTESVIACYEFKKRNNIPMFFGIGNVTELFDVDSNGVNASIAAIGQEIGGNILFTPEASKKCKFSIKELKTASKMLFLAKKRNSLP,not soluble
18,MGSDKIHHHHHHMNRFIIADASKCIGCRTCEVACVVSHQEHQDCASLTPHTFQPRIHVIKGVNVSTATACRQCEDAPCANVCPNGAISRDKGFVHVMQERCIGCKTCVVACPYGAMEVVVRPVIRHSGAGLNVVAEKAEANKCDLCFHRESGPACMEVCPTHALVCVDRNKLEQMNIEKRRRTALAW,not soluble
19,MSLSRQIRYYGTGTEKVEEELQDLLPDANIIRMDNDTTRKKGAHAKLLAQFGSGEADILIGTQMIAKGLDFPNVTLVGVLNADTALGLPDFRASERTFQLLTQVSGRAGRAEKSGHVYIQTFNPDHYAIRFAQHHDYEGFFKYEMQMRHRGGYPPYYFTVQITASDLDEGVAAKRMYQLLQWLRPRLAPSTILLGPTPKPIARVNRRYYYQIVIKYKQEPNLAQTLTTLLHETQAQQRQGLQIGIDVEPLHFMEGHHHHHH,not soluble
20,ESICLIGHSLGGDLARYFASEFEEVKKLILLDGGYLDLDKILPLDTELEETKNYIKSQIVSDLDVLTSKEKSEAKHWSENMEKAVRQSYHWNVEYNRYELAINYENIEAILRLRRKIQAFKREVGDTLFISPRYPNEATWREEALKELPDYFDTIFLENFGHELYTQAPKEIASLMNEWLAYFL,not soluble
21,GSSGSSGMCGRFAQSQTREDYLALLAEDIERDIPYDPEPIGRYNVAPGTKVLLLSERDEHLHLDPVFWGYAPGWWDKPPLINARVETAATSRMFKPLWQHGRAICFADGWFEWKKEGDKKQPFFIYRADGQPIFMAAIGSTPFERGDEAEGFLIVTAAADQGLVDIHDRRPLVLSPEAAREWMRQEISGKEASEIAASGCVPANQFSWHPVSRAVGNVKNQGAELIQPV,soluble
22,MSLSAVKIAVILPMTGGISAFGRMVWEGIQIAHEEKPTVLGEEVELVLLDTRSEKTEAANAAARAIDKEKVLAIIGEVASAHSLAIAPIAEENKVPMVTPASTNPLVTQGRKFVSRVCFIDPFQGAAMAVFAYKNLGAKRVVVFTDVEQDYSVGLSNFFINKFTELGGQVKRVFFRSGDQDFSAQLSVAMSFNPDAIYITGYYPEIALISRQARQLGFTGYILAGDGADAPELIEIGGEAVEGLLFTTHYHPKAASNPVAKKFVEVYKEKYGKEPAALNALGYDAYMVLLDAIERAGSFDREKIAEEIRKTRNFNGASGIINIDENGDEGHHHHHH,soluble
23,MGSDKIHHHHHHMCEISVVMPVYNAEMHIKDAIESVLEQSFVDFEFILIDDGSTDHTSSIIQSYNDKRVRLIQNSHNFIESLNLGIENSLGKYMARMDGDDIMHIDRLKIQYAIMQEYPDVTVCGTWMNSIGTYSQTNGLLSTLSGWVEQPLLKFTKGNFLFHPTTMIRMDFLKKNALKYENYPYAEDFKFWVEIAKSGGRFYIDSQPLLYYRISDSQVSSQKSSEQRATTESIINEVLEYLMELNKNEYPELAAAYGDLCKLYEKQLLTKCEVLTLFQTLFSKNEKKLNL,not soluble
